Test results: PMC2844784 (Cell host & microbe, 2010)

Biological target: T1, recombinant Set7/9-KMT7 (UniProt Q8WTS6 1-366)
T1 sequence (looked up): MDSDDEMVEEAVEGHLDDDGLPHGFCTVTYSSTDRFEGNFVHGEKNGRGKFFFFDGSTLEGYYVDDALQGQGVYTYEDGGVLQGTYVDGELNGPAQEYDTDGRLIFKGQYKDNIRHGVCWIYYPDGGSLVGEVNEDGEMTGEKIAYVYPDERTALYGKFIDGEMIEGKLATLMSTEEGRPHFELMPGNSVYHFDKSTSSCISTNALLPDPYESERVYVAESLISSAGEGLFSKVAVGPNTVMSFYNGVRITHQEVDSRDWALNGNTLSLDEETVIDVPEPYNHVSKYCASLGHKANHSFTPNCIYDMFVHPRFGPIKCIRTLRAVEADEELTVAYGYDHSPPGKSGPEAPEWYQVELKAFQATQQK
Assay: in vitro binding reaction

B1: full-length synthetic Tat protein (aa 1-72) (natural protein)
chain: MEPVDPRLEPWKHPGSQPKTACTNCYCKKCCFHCQVCFITKALGISYGRKKRRQRRRAHQNSQTHQASLSKQ
  binding result: binds
